Source: article PMC11529724
Read-outs that look alike come from different tables or passages of the source. Values belong to the binder of their own block, whether it stands above or below them.

Experiments:
[1] = target: microtubules assembled from porcine brain tubulin (porcine) (UniProt P02550)
[2] = target: microtubules assembled from porcine brain tubulin (porcine) (UniProt P02550); remark: listed apart in the source
[3] = target: unmodified human microtubules (tubulin from tsA201 cells) (human (endogenous in tsA201)) (UniProt P68363); assay: TIRF microscopy binding assay

microtubules assembled from porcine brain tubulin (porcine), sequence (P02550 whole entry, chain 1 of 2): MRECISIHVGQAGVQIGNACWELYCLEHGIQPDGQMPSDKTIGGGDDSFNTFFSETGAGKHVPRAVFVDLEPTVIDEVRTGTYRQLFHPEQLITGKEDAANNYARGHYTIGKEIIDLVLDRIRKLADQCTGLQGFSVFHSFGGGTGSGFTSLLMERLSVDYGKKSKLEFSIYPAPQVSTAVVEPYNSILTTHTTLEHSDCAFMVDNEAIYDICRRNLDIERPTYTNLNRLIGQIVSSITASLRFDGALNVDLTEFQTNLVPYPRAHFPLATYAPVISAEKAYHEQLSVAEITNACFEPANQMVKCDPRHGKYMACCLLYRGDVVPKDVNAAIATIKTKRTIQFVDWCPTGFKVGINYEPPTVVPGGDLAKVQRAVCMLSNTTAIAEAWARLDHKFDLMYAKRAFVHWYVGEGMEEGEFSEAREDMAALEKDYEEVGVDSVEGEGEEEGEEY
microtubules assembled from porcine brain tubulin (porcine), sequence (P02554 whole entry, chain 2 of 2, further chain): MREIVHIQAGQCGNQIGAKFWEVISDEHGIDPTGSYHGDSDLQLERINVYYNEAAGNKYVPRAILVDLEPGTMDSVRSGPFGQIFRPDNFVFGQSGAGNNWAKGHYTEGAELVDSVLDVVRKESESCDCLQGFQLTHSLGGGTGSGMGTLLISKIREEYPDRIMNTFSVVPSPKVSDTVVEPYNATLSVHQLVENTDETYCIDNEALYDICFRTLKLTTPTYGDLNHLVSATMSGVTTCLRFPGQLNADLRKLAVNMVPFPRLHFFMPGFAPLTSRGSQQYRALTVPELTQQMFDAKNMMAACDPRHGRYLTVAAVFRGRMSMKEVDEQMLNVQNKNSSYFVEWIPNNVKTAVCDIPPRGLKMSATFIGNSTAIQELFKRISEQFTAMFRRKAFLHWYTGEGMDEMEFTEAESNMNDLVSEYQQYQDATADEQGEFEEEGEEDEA

glutamylation activity with taxol-stabilized MTs, normalized to WT [1]: 35 % of WT
B1: TTLL6 Y479A (enzyme)
chain: GKKKRKKKRLVINLSNCRYDSVRRAAQQYGLREAGDNDDWTLYWTDYSVSLERVMEMKSYQKINHFPGMSEICRKDLLARNMSRMLKLFPKDFHFFPRTWCLPADWGDLQTYSRTRKNKTYICKPDSGCQGRGIFITRSVKEIKPGEDMICQLYISKPFIIDGFKFDLRVYVLVTSCDPLRVFVYNEGLARFATTSYSHPNLDNLDEICMHLTNYSINKHSSNFVQDAFSGSKRKLSTFNSYMKTHGYDVEQIWRGIEDVIIKTLISAHPVIKHNYHTCFPSHTLNSACFEILGFDILLDRKLKPWLLEVNHSPSFSTDSKLDKEVKDSLLYDALVLINLGNCDKKKVLEEERQRGRFLQQCPNREIRLEEVKGFQAMRLQKTEEYEKKNCGGFRLIYPGLNLEKYDKFFQDNSSLFQNTVASRARELAARQLIQELRQKQEKKVFLKKARK

glutamylation activity with taxol-stabilized MTs, normalized to WT [1]: < 20 % of WT
B2: TTLL6 K490 to glutamate (enzyme)
chain: GKKKRKKKRLVINLSNCRYDSVRRAAQQYGLREAGDNDDWTLYWTDYSVSLERVMEMKSYQKINHFPGMSEICRKDLLARNMSRMLKLFPKDFHFFPRTWCLPADWGDLQTYSRTRKNKTYICKPDSGCQGRGIFITRSVKEIKPGEDMICQLYISKPFIIDGFKFDLRVYVLVTSCDPLRVFVYNEGLARFATTSYSHPNLDNLDEICMHLTNYSINKHSSNFVQDAFSGSKRKLSTFNSYMKTHGYDVEQIWRGIEDVIIKTLISAHPVIKHNYHTCFPSHTLNSACFEILGFDILLDRKLKPWLLEVNHSPSFSTDSKLDKEVKDSLLYDALVLINLGNCDKKKVLEEERQRGRFLQQCPNREIRLEEVKGFQAMRLQKTEEYEKKNCGGFRLIYPGLNLEKYDKFFQDNSSLFQNTVASRARELYARQLIQELRQEQEKKVFLKKARK

glutamylation activity with taxol-stabilized MTs, normalized to WT [2]: < 10 % of WT
B3: TTLL6 Leu409 to alanine (enzyme)
chain: GKKKRKKKRLVINLSNCRYDSVRRAAQQYGLREAGDNDDWTLYWTDYSVSLERVMEMKSYQKINHFPGMSEICRKDLLARNMSRMLKLFPKDFHFFPRTWCLPADWGDLQTYSRTRKNKTYICKPDSGCQGRGIFITRSVKEIKPGEDMICQLYISKPFIIDGFKFDLRVYVLVTSCDPLRVFVYNEGLARFATTSYSHPNLDNLDEICMHLTNYSINKHSSNFVQDAFSGSKRKLSTFNSYMKTHGYDVEQIWRGIEDVIIKTLISAHPVIKHNYHTCFPSHTLNSACFEILGFDILLDRKLKPWLLEVNHSPSFSTDSKLDKEVKDSLLYDALVLINLGNCDKKKVLEEERQRGRFAQQCPNREIRLEEVKGFQAMRLQKTEEYEKKNCGGFRLIYPGLNLEKYDKFFQDNSSLFQNTVASRARELYARQLIQELRQKQEKKVFLKKARK

glutamylation activity with taxol-stabilized MTs, normalized to WT [2]: < 10 % of WT
B4: TTLL6 Val422 to alanine (enzyme)
chain: GKKKRKKKRLVINLSNCRYDSVRRAAQQYGLREAGDNDDWTLYWTDYSVSLERVMEMKSYQKINHFPGMSEICRKDLLARNMSRMLKLFPKDFHFFPRTWCLPADWGDLQTYSRTRKNKTYICKPDSGCQGRGIFITRSVKEIKPGEDMICQLYISKPFIIDGFKFDLRVYVLVTSCDPLRVFVYNEGLARFATTSYSHPNLDNLDEICMHLTNYSINKHSSNFVQDAFSGSKRKLSTFNSYMKTHGYDVEQIWRGIEDVIIKTLISAHPVIKHNYHTCFPSHTLNSACFEILGFDILLDRKLKPWLLEVNHSPSFSTDSKLDKEVKDSLLYDALVLINLGNCDKKKVLEEERQRGRFLQQCPNREIRLEEAKGFQAMRLQKTEEYEKKNCGGFRLIYPGLNLEKYDKFFQDNSSLFQNTVASRARELYARQLIQELRQKQEKKVFLKKARK

Kd [3]: 210 nM
B5: Atto488-labeled TTLL6 (enzyme)
chain: GKKKRKKKRLVINLSNCRYDSVRRAAQQYGLREAGDNDDWTLYWTDYSVSLERVMEMKSYQKINHFPGMSEICRKDLLARNMSRMLKLFPKDFHFFPRTWCLPADWGDLQTYSRTRKNKTYICKPDSGCQGRGIFITRSVKEIKPGEDMICQLYISKPFIIDGFKFDLRVYVLVTSCDPLRVFVYNEGLARFATTSYSHPNLDNLDEICMHLTNYSINKHSSNFVQDAFSGSKRKLSTFNSYMKTHGYDVEQIWRGIEDVIIKTLISAHPVIKHNYHTCFPSHTLNSACFEILGFDILLDRKLKPWLLEVNHSPSFSTDSKLDKEVKDSLLYDALVLINLGNCDKKKVLEEERQRGRFLQQCPNREIRLEEVKGFQAMRLQKTEEYEKKNCGGFRLIYPGLNLEKYDKFFQDNSSLFQNTVASRARELYARQLIQELRQKQEKKVFLKKARK
modifications: Atto488 on the N-terminus, through the synthetic peptide NH2-(Atto488)-… ligated with sortase

glutamylation activity with taxol-stabilized MTs, increase against WT [2]: 59 % increase
B6: TTLL6 F425 to alanine (enzyme)
chain: GKKKRKKKRLVINLSNCRYDSVRRAAQQYGLREAGDNDDWTLYWTDYSVSLERVMEMKSYQKINHFPGMSEICRKDLLARNMSRMLKLFPKDFHFFPRTWCLPADWGDLQTYSRTRKNKTYICKPDSGCQGRGIFITRSVKEIKPGEDMICQLYISKPFIIDGFKFDLRVYVLVTSCDPLRVFVYNEGLARFATTSYSHPNLDNLDEICMHLTNYSINKHSSNFVQDAFSGSKRKLSTFNSYMKTHGYDVEQIWRGIEDVIIKTLISAHPVIKHNYHTCFPSHTLNSACFEILGFDILLDRKLKPWLLEVNHSPSFSTDSKLDKEVKDSLLYDALVLINLGNCDKKKVLEEERQRGRFLQQCPNREIRLEEVKGAQAMRLQKTEEYEKKNCGGFRLIYPGLNLEKYDKFFQDNSSLFQNTVASRARELYARQLIQELRQKQEKKVFLKKARK

glutamylation activity with taxol-stabilized MTs, increase against WT [2]: 70 % increase
B7: TTLL6 F408 to alanine (enzyme)
chain: GKKKRKKKRLVINLSNCRYDSVRRAAQQYGLREAGDNDDWTLYWTDYSVSLERVMEMKSYQKINHFPGMSEICRKDLLARNMSRMLKLFPKDFHFFPRTWCLPADWGDLQTYSRTRKNKTYICKPDSGCQGRGIFITRSVKEIKPGEDMICQLYISKPFIIDGFKFDLRVYVLVTSCDPLRVFVYNEGLARFATTSYSHPNLDNLDEICMHLTNYSINKHSSNFVQDAFSGSKRKLSTFNSYMKTHGYDVEQIWRGIEDVIIKTLISAHPVIKHNYHTCFPSHTLNSACFEILGFDILLDRKLKPWLLEVNHSPSFSTDSKLDKEVKDSLLYDALVLINLGNCDKKKVLEEERQRGRALQQCPNREIRLEEVKGFQAMRLQKTEEYEKKNCGGFRLIYPGLNLEKYDKFFQDNSSLFQNTVASRARELYARQLIQELRQKQEKKVFLKKARK
